Data set [1] has as its target GST fusion protein of the GluR1 carboxyl tail (GST-GluR1CT) (UniProt P19490).
Data set [2] relates to GST-GluR23Y (GST-YKEGYNVYG) [GST: P08515].
The subject of data set [3] is GST back bone (GST) [GST: P08515].
The subject of data set [4] is T1, GST-GluR23A (GST-AKEGANVAG).
T1 sequence: AKEGANVAG

For data set [5], the target named is GST fusion protein of the GluR2 carboxyl tail (GST-GluR2CT) (UniProt P19491).
Sequence of GST fusion protein of the GluR2 carboxyl tail (GST-GluR2CT) (P19491 834-883): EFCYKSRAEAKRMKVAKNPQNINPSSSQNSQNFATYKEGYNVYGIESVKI

Sequence of GST fusion protein of the GluR1 carboxyl tail (GST-GluR1CT) (P19490 827-907): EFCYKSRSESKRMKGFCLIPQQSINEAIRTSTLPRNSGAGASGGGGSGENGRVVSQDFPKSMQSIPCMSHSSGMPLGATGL

With active recombinant pp60 c-Src, the “in vitro kinase assay, anti-phosphotyrosine immunoblot” value in data set [1] is recorded as “GST-GluR2CT, but not GST-GluR1CT or GST alone, is specifically phosphorylated by Src kinase”; in data set [2], “the recombinant Src kinase phosphorylated a GST fusion protein containing the nine amino-acid stretch including all three GluR2-unique tyrosine residues”; in data set [3] it was “GST-GluR2CT, but not GST-GluR1CT or GST alone, is specifically phosphorylated by Src kinase”; in data set [4], “Src-mediated phosphorylation was abolished when these tyrosine residues were mutated into alanines”; in data set [5], “GST-GluR2CT, but not GST-GluR1CT or GST alone, is specifically phosphorylated by Src kinase”.

The values are drawn from patent US20120077751.
